From patent US20260265374A1 (JW THERAPEUTICS R AND D SHANGHAI, published 2026)

T1: Soluble CD19 protein (amino acids 20-291) (UniProt P15391 20-291)
T1 construct: range 20-291; Analyte in SPR, 300 nM to 4.69 nM; also called cognate ligand CD19
T1 sequence (looked up): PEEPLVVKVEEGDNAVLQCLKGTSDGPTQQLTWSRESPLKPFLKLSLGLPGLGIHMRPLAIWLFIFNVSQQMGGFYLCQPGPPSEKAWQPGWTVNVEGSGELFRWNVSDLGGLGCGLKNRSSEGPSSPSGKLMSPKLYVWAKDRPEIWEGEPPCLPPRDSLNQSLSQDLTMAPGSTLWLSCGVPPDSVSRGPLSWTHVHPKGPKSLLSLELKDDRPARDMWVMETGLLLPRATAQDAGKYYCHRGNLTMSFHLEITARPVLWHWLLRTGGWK


Target: T1, Soluble CD19 protein (amino acids …)
Test: SPR (Biacore T200), antibody captured on Protein A chip, soluble CD19 as analyte
Description: All SPR experiments were performed on a Biacore T200 (PCytiva) with HBS-EP as running buffer. The antibodies were captured by Protein A chip (LOT #10309880, Cytiva). Soluble CD19 protein (amino acids 20-291) was used as the analyte at concentrations ranging from 300 nM to 4.69 nM through the flow cells for 120 seconds followed by dissociation analysis for 300 seconds. Association rates (Kon), dissociation rates (Koff) and the constant Ka (Kon/Koff) were fitted to the results.

| binding result | Binder |
| --- | --- |
| binds | Antibody comprising scFv-2 fused with human IgG1 Fc fragment (Fc fusion, scFv fused with human IgG1 Fc; not shown: human IgG1 Fc fragment) DIQMTQTTSSLSASLGDRVTISCRASQDISKYLNWYQQRPDGTVKLLIYHTSRLHSGVPSRFSGSGSGTDYSLTISNLEPEDIATYFCQQGNTLPYTFGGGTKLEITGSTSGSGKPGSGEGSTKGEVKLQESGPGLVAPSQSLSVTCTVSGVSLPDYGVSWIRQPPRKGLEWLGVIWGSETTYYNSALKSRLTIIKDNSKSQVFLKMNSLQTDDTAIYYCAKHYYYGGSYAMDYWGQGTSVTVSS |
| binds | Antibody comprising scFv-1 fused with human IgG1 Fc fragment (Fc fusion, scFv fused with human IgG1 Fc; not shown: human IgG1 Fc fragment) DIQMTQTTSSLSASLGDRVTISCRASQDISKYLNWYQQRPDGTVKLLIYHTSRLHSGVPSRFSGSGSGTDYSLTISNLEPEDIATYFCQQGNTLPYTFGSGTRLEITGSTSGSGKPGSGEGSTKGEVKLQESGPGLVAPSQSLSVTCTVSGVSLPDYGVSWIRQPPRKGLEWLGVIWGSETTYYNSALKSRLTIIKDNSKSQVFLKMNSLQTDDTAIYYCAKHYYYGGSYAMDYWGQGTSVTVSS |
